Test results taken from patent US20200283515A1 (HUMANITAS MIRASOLE S P A, published 2020).
One block for each binder: values may come before it. Ends that are not written are not given here. * marks the point of attachment. Biotin = O=C1N[C@H]2[C@H](CS[C@H]2CCCCC(=O)*)N1; Ahx = NCCCCCC(=O)O

Columns and labels:
[1] = biological target: T1, recombinant human Migration Stimulating Factor (rhMSF) (human, UniProt P02751 32-647); assay: immunoaffinity chromatography on a column coupled to 1G5.3
T1 construct: Secreted by the CHO-3E6 clone; also called hrMSF; human recombinant MSF
T1 sequence (P02751 other isoform, or with tags, fused parts or gaps limits assumed): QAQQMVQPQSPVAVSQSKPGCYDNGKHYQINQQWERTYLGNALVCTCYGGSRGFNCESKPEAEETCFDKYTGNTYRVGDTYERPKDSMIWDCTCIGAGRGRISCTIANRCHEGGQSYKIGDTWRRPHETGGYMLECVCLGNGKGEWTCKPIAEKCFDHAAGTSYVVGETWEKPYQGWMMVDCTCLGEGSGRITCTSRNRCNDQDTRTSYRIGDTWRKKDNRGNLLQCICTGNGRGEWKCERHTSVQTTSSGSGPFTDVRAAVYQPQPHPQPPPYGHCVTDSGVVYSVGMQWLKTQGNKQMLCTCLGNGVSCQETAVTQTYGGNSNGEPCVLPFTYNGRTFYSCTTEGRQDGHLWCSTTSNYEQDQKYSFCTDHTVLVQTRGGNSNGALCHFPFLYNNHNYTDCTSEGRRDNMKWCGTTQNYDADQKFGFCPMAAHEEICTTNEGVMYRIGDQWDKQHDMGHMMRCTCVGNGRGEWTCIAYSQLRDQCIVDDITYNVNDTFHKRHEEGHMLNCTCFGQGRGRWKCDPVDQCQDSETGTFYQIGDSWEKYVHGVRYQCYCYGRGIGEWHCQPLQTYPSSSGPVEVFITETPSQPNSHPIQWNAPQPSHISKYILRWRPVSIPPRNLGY
Protocol: Recombinant human MSF was purified from the conditioned medium of CHO-3E6 by immunoaffinity chromatography (IAC). […] The 1G5.3 column was extensively washed at 5 ml/min with buffer A followed by buffer B (50 mM Tris-HCl, 500 mM NaCl, pH 7.00), and bound rhMSF was eluted with buffer C (3.5 M MgCl2) in a total volume of 4 ml. Homogeneity of the eluted protein was assessed using an analytical Superdex 200 10/300 GL gel filtration column (GE Healthcare), equilibrated and eluted at 0.5 ml/min with buffer B on an AKTA Purifier FPLC system. In addition, aliquots of conditioned medium (input), unbound material (flow through) and eluted protein (eluate) from IAC were resolved on NuPAGE Novex Bis-Tris 10% gels (Thermo Fisher Scientific, Waltham, Mass.) under denaturing and reducing conditions (i.e., in the presence of dithiothreitol). […] Membranes were developed with Immobilon western HRP substrate (Merck Millipore, Darmstadt, Germany) and chemiluminescence recorded on a Chemidoc MP system (Bio-Rad). Throughout the purification process, total protein content was determined using a Bradford protein assay (Bio-Rad) and rhMSF specific titres were measured with an ELISA MSF assay made “in-house” as described below.

[2] = biological target: T2, biot-VSIPPRNLGY peptide (biot-Ahx-VSIPPRNLGY) (human); assay: indirect ELISA, peptide captured on NeutrAvidin, 1G5.3 at 10 ng/ml (FIG. 20A)
T2 construct: Synthetic; captured on NeutrAvidin-coated plates; also called unique MSF decapeptide; C-terminal unique tail of MSF
T2 peptide: {Biotin-Ahx}-VSIPPRNLGY
Protocol: FIG. 20. Indirect ELISA analysis of the interaction of mAb7.1 and 1G5.3 with biot-[…] and rhMSF. A) The biot-[…] peptide (SEQ ID NO:11) (spanning the aa 648-657 sequence at the C-terminus of human MSF) was captured onto Maxisorb plates that had been coated with NeutrAvidin. […] B) Maxisorb plates were coated with rhMSF, and incubated with mAb7.1 hybridoma cultures or purified 1G5.3. […] Wells containing NeutrAvidin (NeutrAvidin in A) or PBS−/− (PBS in B) only were taken as negative controls. Shown are plots from one out of two independent experiments, each performed in duplicate.
Nunc Maxisorb immunoplates were coated (0/N at 4° C.) with NeutrAvidin protein (1 μg/well; Thermo Scientific, Rockford, Ill., USA; Cat No: 31000) in PBS−/−. Biot-[…] (SEQ ID NO:11) peptide (100 μl/well, 10 μg/ml in PBS+/+ containing 0.05% (v/v) Tween 20, washing buffer) was added and captured on the NeutrAvidin layer for 1 h at room temperature; this allowed N→C orientation of the peptide, thus mimicking its topological organization in the context of the MSF protein [19]. Uncoated sites were blocked by incubation for 2 h at room temperature with 2% (w/v) bovine serum albumin (BSA, Sigma Aldrich; Cat No: A7030) in PBS+/+. […] Each sample was analyzed in duplicate and results were reported as mean±SD.

[3] = biological target: T3, human Migration Stimulating Factor (MSF), natural protein in human cancer tissues (human, UniProt P02751 32-647); assay: immunohistochemistry on paraffin sections of breast and lung cancer
T3 construct: Natural MSF as stained in formalin-fixed paraffin-embedded sections of breast and lung cancer; also called human MSF
Protocol: Paraffin-embedded human tissue sections were cut and kept overnight at 37° C. Sections were dewaxed in Bioclear. Antigen unmasking was performed in a Decloaker Chamber in DIVA Buffer 1× (Biocare Medical Cat No: DV2004) for 3 minutes at 125° C. and 5 minutes at 90° C.
After blocking endogenous peroxidases with Peroxidized-1 (Biocare Medical Cat No: PX968) for 15 minutes, non-specific binding sites were blocked with Background Sniper solution (Biocare Medical Cat No: BS966) for 30 minutes. Human tissue samples were then incubated 1 h with 1G5.3 (1/150-1/300) to identify MSF, or with mouse monoclonal anti-human CD68 (Dako Cat No: M0876, clone PG-M1, 780 μg/ml for 1 h) to identify macrophages. […] Then the reactions were developed with 3,3′-Diaminobenzidine tetrahydrochloride (Biocare Medical Cat No: DB801). Slides were counterstained for 3 min with haematoxylin solution.

[4] = biological target: T4, human Fibronectin 1 (hFn1) (human, UniProt P02751 32-2477); assay: indirect ELISA, titration of purified 1G5.3 on coated hFn1
T4 construct: Bought from Calbiochem (Cat No 341635)
T4 sequence (P02751 other isoform, or with tags, fused parts or gaps limits assumed): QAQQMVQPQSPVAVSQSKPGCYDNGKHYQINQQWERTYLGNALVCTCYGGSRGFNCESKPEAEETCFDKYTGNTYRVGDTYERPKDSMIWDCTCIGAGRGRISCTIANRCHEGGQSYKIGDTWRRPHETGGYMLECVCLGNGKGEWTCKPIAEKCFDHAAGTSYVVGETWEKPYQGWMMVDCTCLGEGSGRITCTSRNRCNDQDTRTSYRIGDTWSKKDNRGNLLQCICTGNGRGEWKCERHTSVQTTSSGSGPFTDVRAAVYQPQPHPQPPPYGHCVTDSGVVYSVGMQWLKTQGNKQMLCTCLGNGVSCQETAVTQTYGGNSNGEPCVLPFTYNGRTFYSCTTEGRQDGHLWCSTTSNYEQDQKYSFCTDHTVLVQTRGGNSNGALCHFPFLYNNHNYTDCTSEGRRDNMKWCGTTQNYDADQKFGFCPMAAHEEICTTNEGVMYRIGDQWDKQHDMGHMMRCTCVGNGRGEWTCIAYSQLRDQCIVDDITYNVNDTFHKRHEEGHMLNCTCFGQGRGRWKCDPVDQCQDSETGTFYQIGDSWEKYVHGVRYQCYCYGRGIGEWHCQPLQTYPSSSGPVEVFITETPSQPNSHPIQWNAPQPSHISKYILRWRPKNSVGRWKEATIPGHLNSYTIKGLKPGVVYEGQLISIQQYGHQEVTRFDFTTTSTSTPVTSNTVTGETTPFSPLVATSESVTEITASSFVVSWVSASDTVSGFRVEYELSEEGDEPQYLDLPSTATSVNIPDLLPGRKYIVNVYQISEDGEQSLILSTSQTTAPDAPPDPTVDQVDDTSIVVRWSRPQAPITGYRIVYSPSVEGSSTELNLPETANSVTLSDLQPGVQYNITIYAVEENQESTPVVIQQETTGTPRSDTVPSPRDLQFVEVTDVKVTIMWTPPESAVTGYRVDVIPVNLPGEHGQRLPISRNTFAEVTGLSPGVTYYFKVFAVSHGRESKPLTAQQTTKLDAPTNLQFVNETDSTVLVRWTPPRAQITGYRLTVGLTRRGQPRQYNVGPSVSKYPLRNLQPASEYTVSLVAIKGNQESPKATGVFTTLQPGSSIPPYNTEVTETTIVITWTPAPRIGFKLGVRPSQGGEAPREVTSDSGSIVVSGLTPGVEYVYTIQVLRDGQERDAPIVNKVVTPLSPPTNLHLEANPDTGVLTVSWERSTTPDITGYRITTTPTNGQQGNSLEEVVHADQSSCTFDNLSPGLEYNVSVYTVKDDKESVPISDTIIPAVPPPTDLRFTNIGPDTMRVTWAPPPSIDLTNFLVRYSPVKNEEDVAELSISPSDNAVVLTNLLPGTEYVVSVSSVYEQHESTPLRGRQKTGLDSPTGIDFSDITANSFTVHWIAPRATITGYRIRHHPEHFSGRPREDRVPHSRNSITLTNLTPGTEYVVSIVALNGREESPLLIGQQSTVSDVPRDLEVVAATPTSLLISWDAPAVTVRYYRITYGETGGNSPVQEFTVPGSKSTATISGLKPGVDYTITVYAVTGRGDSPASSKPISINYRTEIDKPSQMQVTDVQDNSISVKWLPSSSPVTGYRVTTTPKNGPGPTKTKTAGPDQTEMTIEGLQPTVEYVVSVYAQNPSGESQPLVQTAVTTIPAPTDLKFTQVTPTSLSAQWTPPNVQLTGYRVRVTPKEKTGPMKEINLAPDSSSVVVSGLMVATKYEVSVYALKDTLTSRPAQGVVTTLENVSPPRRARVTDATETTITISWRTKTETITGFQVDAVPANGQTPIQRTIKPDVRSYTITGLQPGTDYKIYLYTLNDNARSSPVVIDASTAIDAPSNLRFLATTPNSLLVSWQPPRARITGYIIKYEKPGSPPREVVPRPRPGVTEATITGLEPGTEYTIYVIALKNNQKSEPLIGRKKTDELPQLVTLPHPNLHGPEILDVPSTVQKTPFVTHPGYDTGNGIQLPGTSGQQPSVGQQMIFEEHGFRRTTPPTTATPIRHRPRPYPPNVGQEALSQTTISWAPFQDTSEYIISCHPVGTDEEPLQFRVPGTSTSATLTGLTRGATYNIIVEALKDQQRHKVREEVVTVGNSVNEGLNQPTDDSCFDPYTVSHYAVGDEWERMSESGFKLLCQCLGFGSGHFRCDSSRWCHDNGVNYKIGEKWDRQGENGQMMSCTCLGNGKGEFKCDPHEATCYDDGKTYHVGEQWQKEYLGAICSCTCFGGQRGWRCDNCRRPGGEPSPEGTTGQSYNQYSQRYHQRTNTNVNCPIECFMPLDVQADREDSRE
Protocol: ELISA plates (Nunc Maxisorb immunoplates Cat. No.: 446612) were coated (0/N at 4° C.) with His-MSF (1-0.5 μg/well), supernatant from CHO-3E6 (50 μl) or hFn1 (1 μg/well), diluted in 15 mM Na carbonate buffer (pH9.6). After coating plates are washed three times with PBS+/+ and 0.05% Tween 20 (washing buffer), then non-specific interactions are blocked by incubation for 2 h at room temperature with 5% (w/v) dry milk in washing buffer. Wells were washed three times with washing buffer, then aliquots of rabbit polyclonal antiserum, supernatants from anti-MSF hybridomas or purified 1G5.3 diluted in washing buffer were added and incubated 1 h at room temperature. Anti-rabbit IgG or anti-mouse IgG labelled with horse-radish peroxidase (Cat No: GENA934 and GENA931 respectively, GE […]) were then added (1/2000 in washing buffer) and incubated 1 h at room temperature. Reaction was developed with 3,3′,5,5′-tetramethylbenzidine (TMB; 1 Step™ ULTRA TMB-ELISA, Thermo Scientific, Rockford, Ill., USA; Cat No: 34019) and stopped with 2N H₂SO₄ before reading absorbance at 450 nm with an automated plate reader (Versamax microplate reader). Baseline was obtained adding anti-MSF antibody on buffer-coated wells.
mAb 1G5.3 was purified from culture supernatant of hybridoma cells by affinity chromatography on Protein-G sepharose. […] The purified antibody was finally analyzed in ELISA. […]

[5] = biological target: T1, recombinant human Migration Stimulating …; assay: sandwich ELISA, 1G5.3-F(ab)′2 coated, rhMSF standard curve
Protocol: To measure MSF levels in biological fluids a sandwich ELISA has been developed. To this aim ELISA plates were incubated O/N at 4° C. with 250 ng/well of 1G5.3 or 500 ng/well of the 1G5.3-F(ab)′2 fragment diluted in PBS−/−, pH 7.0. After coating, plates were washed three times with 300 μl of washing buffer and then blocked with 5% dry milk for 2 h at 37° C. 100 μl of human plasma [informed consents were obtained] diluted 1/10 in washing buffer containing 2% Bovine Serum Albumin were then added and incubated for 1 h at room temperature. In the same plate a standard curve was generated using purified recombinant human MSF. After washing, plates were incubated with commercial biotinylated polyclonal Sheep IgG recognizing human hFn1 (0.25 μg/ml in washing buffer; R&D Cat No: BAF1918) for 1 h at room temperature. Finally, 100 μl of peroxidase-streptavidin (BioSpa Cat No: SB01-161) diluted 1/10000 in washing buffer were added and incubated 1 h at room temperature. Plates were then washed and incubated with 100 μl/well of the chromogenic substrate TMB before blocking with 2N H2SO4. Absorbance was read at 450 nm as described above. Linear regression was used to calculate MSF concentration in plasma samples from the standard curve made with recombinant MSF.
The 1G5.3-F(ab)′2 fragment was then tested in the sandwich ELISA following the same procedure outlined above. […]

binding result [1]: binds | binding result [2]: binds | binding result [3]: binds
B1: monoclonal antibody 1G5.3 (antibody, mouse IgG1, kappa, V domains shown)
VH: EVKIEESGGGLVQPGGSMKLSCVASGFTFSNDWMNWVRQSPEKGLEWVAEIRMKSDNYATYYAESVKGRFTISRDDSKNSVYLQMNNLRAEDNGIYYCTSWDYWGQGTTLTVSS
VL: DIVMSQSPSSLAVSTGEKVTMNCRSSHYLLNSRTRKNFLSWYQQKPGQSPQLLIYWASTRYSGVPDRFTGSGSGTDFTLTISSVQAEDLAVYYCKQSYNLHTFGGGTKLEIKR
notes: Mouse IgG1, kappa; Used purified (Protein G) or as hybridoma supernatant; also called mAb 1G5.3; 1G5.3 mAb
binding result [4]: no binding (tested: 10 µg/ml to 0.005 ng/ml of 1G5.3)

binding result [5]: binds
B2: 1G5.3-F(ab)′2 fragment (other, not shown: a dimerising Fc or GST)
heavy: B1 VH
light: DIVMSQSPSSLAVSTGEKVTMNCRSSHYLLNSRTRKNFLSWYQQKPGQSPQLLIYWASTRYSGVPDRFTGSGSGTDFTLTISSVQAEDLAVYYCKQSYNLHTFGGGTKLEIKRADAAPTVSIFPPSSEQLTSGGASVVCFLNNFYPKDINVKWKIDGSERQNGVLNSWTDQDSKDSTYSMSSTLTLTKDEYERHNSYTCEATHKTSTSPIVKSFNRNEC
notes: Made from purified 1G5.3 by pepsin digestion; 110 kDa non-reduced; also called anti-human MSF 1G5.3 F(ab)′2 fragment
